Assays:
Vγ9Vδ2 T cells = assay: Stimulation and expansion assay of Vγ9Vδ2 T cells from PBMC; format: cell-based, human
Description: P815 (mouse mastocytoma cell line), K562 (chronic myeloid leukaemia cell line), Raji and Daudi (Burkitt lymphoma cell lines) were cultured in RPMI 1640 medium (Invitrogen) and 10% foetal calf serum (FCS) (Eurobio). The PBMC from healthy donors were distributed at 106/ml in 24-well culture plates at 37° C. in 5% CO2 in RPMI 1640 medium and 10% FCS. Polyclonal Vγ9Vδ2 T cells were specifically expanded with 3 μmol/l of Phosphostim (BrHPP molecule, Innate Pharma, Marseille, France) and 100 U/ml IL-2 (Chiron, Basel, Switzerland) for 12 days. Phosphostim was added once at the onset of the culture. Every 2 days, one-half of the culture medium volume was replaced with fresh medium containing 100 U/ml IL-2.
PBMC were plated and stimulated as described in the paragraph: cell lines and expansion of γδ T cells, except cells were stimulated with anti-CD277 mAbs (10 μg/ml); or control isotypes (10 μg/ml); and with or without BrHPP at different concentrations. […] Percentages of Vγ9Vδ2 were measured the first day and the last day of culture as described above. Expanded γδ T cells effectors were stimulated with or without different doses of BrHPP added in anti-CD277 mAbs at 10 μg/ml; or with OKT3 (4 ng/ml) associated with anti-BT3 19.5 mAb in different concentrations. Activation of degranulation was measured by CD107 labelling assay as described above.

monocytes = assay: Costimulatory molecules expression on monocytes, flow cytometry; format: cell-based, human
Description: Blood samples were obtained from 5 healthy volunteers enrolled among the staff members, after informed consent. Monocytes were separated from peripheral blood mononuclear cells, and isolated using the MACS CD14 isolation kit (Miltenyi Biotech, Auburn, Calif. USA). Monocytes were cultured for 5 days with 200 ng/ml of recombinant human GM-CSF and 10 ng/ml recombinant human IL-4 (Schering-Plough Research Institute). These cells were termed immature dendritic cells (iDC). To achieve the stimulation, monocytes and iDC were cultured with 10 ng/ml of LPS, ligand for TLR4, 30 μg/ml of 8848 (Sigma-Aldrich, Milano, Italy), ligand for TLR7/8 and with […] of poly (I:C) (Sigma-Aldrich), ligand for TLR3, and were harvested after 48 h. The cells were cultured in RPMI 1640 supplemented with 10% heat-inactivated FCS, 5 mM L-glutamine and 50 IU/ml penicillin-streptomycin (from here on referred to as complete medium).
Monocytes and iDCs before and after stimulation were analysed by imunofluorescence flow cytometry (FACScalibur Becton Dickinson, Milano, Italy) to verify their activation state. To this end, mAb specific for CD80, CD86, HLA-DR, CD1a, CD14 (BD Becton Dickinson), BT3 (clone 20.1, IgG1) and BT3 Fab2 were previously selected, purified and characterised (Bensussan and Olive, 2005, Compte et al., 2004) or irrelevant molecules (anti-CD19, Becton Dickinson, and anti-CD31, clone Moon-1, provided by F. Malavasi, both IgG1) were used. All the available anti-BT3 mAbs are unable to discriminate among the three members of this family (BT3.1, BT3.2, or BT3.3), probably due to their high sequence homology (Compte et al., 2004, Bensussan and Olive, 2005). As further control, to block the possible effect of trace amounts of endotoxin, polymyxin B (10 μg/ml, Sigma-Aldrich) was added to the anti-BT3 mAb 20.1 before adding the cells.

CD4+ T cells = assay: Functional assay on CD4+ T cells with aAPC, CFSE labeling and cytokine ELISA; format: cell-based, human
Description: Human CD4^+ T cells were purified by negative selection from PBMCs using magnetic beads (Miltenyi Biotec) according to the manufacturer's protocol. CD4+ T cells were routinely more than 97% pure.
CD4^+ T cells were labelled with 0.5 μM CFSE (Invitrogen) for 10 min at 37° C., washed and stimulated (1.5×10^5 cells/well) with aAPC at a ratio of 1:1 (cells to beads) comprised of magnetic beads in triplicate in 96-well round-bottom plates (Falcon; BD Biosciences). Cultures were incubated at 37° C., 5% CO2 for 5 days and then proliferation of CFSE labelled CD4^+ T cells were measured by flow cytometry (FACS Canto, […]).
Magnetic beads (DYNABEADS® M-450 Epoxy, Dynal Biotech) were coated with the following mAbs as described in Serriari et al. (serriari, ji 2010): anti-CD3 (OKT3), anti-human CD28 (CD28.2), and/or various concentrations of anti-human CD277 (CD277, 20.1) or IgG1 or anti-MHC class I (MHC I) (YJ4) or IgG1. These aAPCs were coated with suboptimal anti-CD3 Ab (5%), suboptimal levels of anti-CD28 Ab (10%), and either IgG1 Ab (CD3/CD28/IgG1), anti-CD277 Ab (CD3/CD28/CD277+IgG1) or anti-MHC class I (CD3/28/anti-MHC class I+IgG1), constituting the remaining 85% of protein added to the bead. The amount of protein was kept constant at […] by the addition of control IgG 1. […]

Vγ9/Vδ2 T cells = assay: Cytolytic function, cytokine production and proliferation of Vγ9/Vδ2 T cells; format: cell-based
Text: Typically the activation of the cytolytic function of Vγ9/Vδ2 T cells may be measured according to the method described in example 3 (i.e. “Analysis of Vγ9Vδ2 T cell responses by direct cytotoxicity assay”, and for example the results “CD277 potentiate the anti-tumor cytolysis mediated by Vγ9Vδ2 T cells”). Examples of isolated anti-CD277 antibodies, which activate the cytolytic function, cytokine production and proliferation of Vγ9/Vδ2 T cells, are mAbs 20.1 or 7.2, or derivatives thereof.
Target cells were labelled with 20 μCi of 51Cr (PerkinElmer) for 1 h at 37° C. After washing target cells were incubated with effectors Vγ9Vδ2 T cells for 4 h at 37° C. in different ratio. Incubations were performed in presence of specific or isotype control mAbs or Fab fragments. The radioactivity released by target cells was measured, 4 h later, on beta plate counter. The percentage of specific 51Cr lysis was calculated using the following equation: percent specific lysis=100×[(test release)−(spontaneous release)]/[(maximal release)−(spontaneous release)].

B1: mAb 20.1: murine anti-CD277 antibody obtainable from the hybridoma CNCM I-4402; agonist (antibody, V domains shown)
VH: QVQLQQSGAELVKPGASVKLSCKASGYTFTRYYLYWVKQRPGQGLEWIGEINPNNGGTKFNEKFKSKATLTVDKSSRTTYIQLSSLTSEDSAVYYCSREDDYDGTPDAMDYWGQGTAVTVSS
VL: DIQMNQSPSSLSASLGDTITITCHASQNINLWLSWYQQRPGNIPKLLIYRASNLHTGVPSRFSGSGSATGFTLTISSLQPEDIATYYCQQGHSYPYTFGGGTKLDIK
proliferation of Vγ9Vδ2 cells (CFSE) (Vγ9Vδ2 T cells; PBMC + IL-2): associated with the proliferation
expansion of Vγ9Vδ2 T cells (Vγ9Vδ2 T cells; PBMC + IL-2, 15 days of culture): expanded
CD80 and HLA-DR molecules at the monocyte surface (monocytes; coated mAb): up-regulation
cell surface costimulatory molecule CD86 on monocytes (monocytes; coated mAb, 24 h stimulation): up-regulation
activating effect in the presence of polymyxin B (monocytes; polymyxin B 10 μg/ml): maintained
cellular activation with non-coated (soluble) mAb (monocytes; soluble mAb, no cross-linking, data not shown): no effect
secretion of cytokines induced by anti-CD3 and anti-CD28 stimulation (INFg, IL-2, IL-10) (CD4+ T cells; dose-dependent, supernatants day 2): increased
cells entered division (CFSE dilution) (CD4+ T cells; with anti-CD3 plus anti-CD28 on beads, day 5, anti-CD277 at 17 μg/ml): 90%
cytolytic function, cytokine production and proliferation of Vγ9/Vδ2 T cells (Vγ9/Vδ2 T cells): activate
